Measurements published in publication PMC5856820, “HIV envelope V3 region mimic embodies key features of a broadly neutralizing antibody lineage epitope” (Nature Communications, 2018).

Columns and labels:
[1] = test system: HIV-1 (autologous and heterologous viruses); conditions: cited from earlier work
Description: A synthetic V3-loop glycopeptide (“Man9-V3”), described recently, presents the conformational epitopes needed for the binding of N332 glycan-dependent bnAbs[24], [25]. The peptide design derives from the JRFL mini-V3 gp120 outer domain, used previously for determining a crystal structure with the Fab of bnAb PGT128[9]. The synthetic V3 glycopeptide, which has Man9 glycans (Man9GlcNAc2) at N332 and N301[24] and a 14-residue tip deleted, was used to identify the V3-glycan bnAb DH270.6 (12.9% mutated nucleotides and 71% neutralization breadth[12]) by labeling the B-cell receptor (BCR) on cells fr ... || We describe here a high-resolution crystal structure of “Man9-V3” bound with the single chain variable fragment (scFv) of the N332-glycan dependent bnAb, DH270.6. We have also determined a structure of the Fab of a clonally related member of this lineage, DH270.3 (11.8% mutated nucleotides and 42% neutralization breadth), in complex with a synthetic Man9 glycan. These clonally related antibodies have similar numbers of mutation, but their neutralization breadth and potency differ substantially. Through structural analysis of these two related antibodies, we can account for differences in b ... || Somatic hypermutation is biased by the preference of the activation-induced cytidine deaminase (AID) for certain microsequence motifs (“hot spots”)[28], [29]. […]

92BR SOSIP.664 trimer = experiment: Negative stain EM of DH270.6 Fab-92BR SOSIP.664 complex; parameters: species or system HIV-1; conditions: negatively stained EM; 6 molar excess of Fab, 4 °C, 1.5 h
Procedure: A 2.5 µl aliquot containing ∼0.01 mg/ml of the Fab-92BR SOSIP.664 complex was applied for 30 s onto a carbon-coated 400 Cu mesh grid that had been glow discharged at 5 mA for 2 min, followed by negative staining with 0.7% uranyl formate for 20 s. Samples were imaged using a FEI Tecnai T12 microscope operated at 120 kV and a magnification of ×52,000, yielding a pixel size of 2.13 Å at the specimen plane. Images were acquired with a Gatan 2 K CCD camera using a nominal defocus of 1500 nm at 10° tilt increments, up to 50°. The tilts provided additional particle orientations to improve the image reconstructions.
Particles were picked semi-automatically using EMAN2 and put into a particle stack. Initial, reference-free, two-dimensional (2D) class averages were calculated, and particles corresponding to complexes (with three Fabs bound) were selected into a substack for determination of an initial model. The initial model was calculated in EMAN2 using threefold symmetry and EMAN2 was used for subsequent refinement using threefold symmetry. In total, 12,941 particles were included in the final reconstruction for the 3D average of 92BR SOSIP.664 trimer complex with DH270.6. The resolution of the final model was estimated using a Fourier Shell Correlation (FSC) cut-off of 0.5. […]

wild-type 92BR SOSIP.664 = experiment: Biolayer interferometry (Octet QKe), Fab binding to wild-type 92BR SOSIP.664 Env trimer; parameters: species or system HIV-1; conditions: for Kd / change in Env interaction/affinity of DH270.6 mutant relative to DH270.6: Table 2; for Kd: Fab 0.2 mg/ml immobilized on anti-Human Fab-CH1 biosensor, trimer 0.1 μM to 0.6 μM, association and dissociation 5 min each, 1000 rpm, duplicate measurements, error SEM, read-out: KD of Fab complexes with wild-type 92BR SOSIP.664; for change in Env interaction/affinity of DH270.6 mutant relative to DH270.6: 92BR SOSIP.664 Env trimer
Procedure: (§1) The SOSIP.664 constructs were cloned into the same pVRC-8400 vector described above for Fabs and any mutations were added by site-directed mutagenesis using manufacturer’s protocols (Stratagene). SOSIP.664 constructs were transfected along with a plasmid encoding the cellular protease furin at a 3:1 Env:furin ratio in 293F cells, adapted to grow in suspension from HEK293T cells (ATCC: CRL-3216). The expression construct of furin was kindly provided by Bing Chen (Boston Children’s Hospital, Boston, MA). The cells were allowed to express soluble SOSIP trimers for 5–7 days, and gp120 monomers were expressed for 5 days. Culture supernatants were collected and cells were removed by centrifugation at 3800 × g for 20 min, and filtered with a 0.2 µm pore size filter. Envs were purified by flowing the supernatant over a lectin (Galanthus nivalis) affinity chromatography column overnight at 4 °C. The lectin column was washed with 1× PBS, followed by a second wash with 1× PBS and 0.5 M NaCl and proteins were eluted with 1× PBS supplemented with 0.5 M methyl-α-D-mannopyranoside and 0.5 M NaCl. The eluate was concentrated and loaded onto a Superdex 200 10/300 GL column (GE Life Sciences) pre-equilibrated in a buffer of 2.5 mM Tris, pH 7.5, 350 mM NaCl and 0.02% sodium azide for BLI and in 10 mM Hepes, pH 8.0, 150 mM NaCl and 0.02% sodium azide for negative stain EM, to separate the trimer-size oligomers from aggregates and gp140 monomers and to separate gp120 monomers from aggregates.
Kinetic measurements of Fab binding to the SOSIP.664 constructs were carried out using the Octet QK^e system (ForteBio); 0.2 mg/ml of each His-tagged Fab was immobilized onto a anti-Human Fab-CH1 biosensor until it reached saturation. The SOSIP.664 trimers were tested at concentrations of 0.1 μM to 0.6 μM. A reference sample of buffer alone was used to account for any signal drift that was observed during the experiment. Association and dissociation were each monitored for 5 min. All experiments were conducted in the Octet instrument with agitation at 1000 rpm.
Analyses were performed using nonlinear regression curve fitting using the Graphpad Prism software, version 7.

[2] = test system: R327A mutant of 92BR SOSIP.664 Env; experiment: Biolayer interferometry (Octet QKe), DH270.6 Fab binding to R327A mutant 92BR SOSIP.664 Env trimer; parameters: species or system HIV-1
Procedure: as §1, with “The eluate was concentrated and loaded onto a Superdex 200 10/300 GL column (GE Life Sciences) pre-equilibrated in a buffer of 2.5 mM Tris, pH 7.5, 350 mM NaCl and 0.02% sodium azide for BLI and in 10 mM Hepes, pH 8.0, 150 mM NaCl and 0.02% sodium azide for negative stain EM, to separate the trimer-size oligomers from aggregates and gp140 monomers and to separate gp120 monomers from aggregates.” left out
Kinetic measurements of Fab binding to the SOSIP.664 constructs were carried out using the Octet QK^e system (ForteBio); 0.2 mg/ml of each His-tagged Fab was immobilized onto a anti-Human Fab-CH1 biosensor until it reached saturation. […] Association and dissociation were each monitored for 5 min. […]

[3] = biological target: biotinylated Man9-V3 glycopeptide (HIV-1 (strain JRFL)); experiment: BLI; BLItz instrument; 0.2 mg/ml biotinylated Man9-V3 immobilised on a streptavidin biosensor; DH270.6 Fab at 40, 15, 5, 1.5 and 0.25 μM; 22 °C; duplicate measurements; kd calculated as the product of ka and KD
DH270.6 Fab (human) [4] = experiment: BLI
DH270.6 Fab (human) [5] = experiment: BLI; Octet QKe; 0.2 mg/ml His-tagged Fab immobilised on an anti-Human Fab-CH1 biosensor; SOSIP.664 trimers at 0.1 to 0.6 μM; association and dissociation 5 min each; agitation 1000 rpm
[6] = biological target: DH270.6 Fab S103G (heavy chain) (human); experiment: BLI
[7] = biological target: DH270.6 Fab T98R (heavy chain) (human); experiment: BLI
[8] = biological target: DH270.6 Fab Y48L (light chain) (human); experiment: BLI
DH270.6 Fab (human) [9] = experiment: BLI; Octet QKe; 0.2 mg/ml His-tagged Fab immobilised on an anti-Human Fab-CH1 biosensor; SOSIP.664 trimers at 0.1 to 0.6 μM; association and dissociation 5 min each; agitation 1000 rpm; remark: listed apart in the source

Molecule: DH270.6: V3-glycan broadly neutralizing antibody of DH270 lineage from HIV-1 infected donor CH848
- neutralization breadth [1]: 71%
- DH270.6 Fabs bound per trimer (92BR SOSIP.664 trimer): three
- Kd (wild-type 92BR SOSIP.664): 11 ± 1 nM
- affinity of Env R327A mutant for DH270.6 relative to wild-type ([2]; Fig. 4a, compared with wild-type counterpart): only a slightly lower affinity
- Kd ([2]; read-out: KD, R327A mutant 92BR SOSIP.664 Env tested with DH270.6 Fab, Fig. 4a legend, Fab immobilized on anti-Human Fab-CH1 biosensor, trimer 0.1 μM to 0.6 μM): 7.64 nM

Molecule: DH270.6 Fab
- Kd [3]: 7 µM

Molecule: DH270.6 T98RH: DH270.6 Fab with heavy-chain T98 reverted to Arg
- binding with 92BR SOSIP.664 Env trimer (wild-type 92BR SOSIP.664; reversion mutant of DH270.6, Fig. 4b): only negligible residual binding

Molecule: DH270.6 S103GH: DH270.6 Fab with heavy-chain S103G mutation
- change in Env interaction/affinity of DH270.6 mutant relative to DH270.6 (wild-type 92BR SOSIP.664; Fig. 4b): weakens the Env interaction twofold
- Kd (wild-type 92BR SOSIP.664): 19 ± 1 nM

Molecule: 92BR SOSIP.664 Env trimer, R327A mutant (complex)
- Kd (DH270.6 Fab (human) [4]): 7.64 nM

Molecule: 92BR SOSIP.664 Env trimer, wild type (complex)
- Kd (DH270.6 Fab (human) [5]): 2.76 nM
- Kd [6]: 19 nM
- Kd [7]: 46 nM
- Kd [8]: 44 nM
- Kd (DH270.6 Fab (human) [9]): 11 nM

B1: DH270.6 Y48LL: DH270.6 Fab with light-chain Y48 mutated to leucine, as in the UCA (antibody, V domains shown)
VH: QVQLVQSGAQMKNPGASVKVSCAPSGYTFTDFYIHWLRQAPGQGLQWMGWMNPQTGRTNTARNFQGRVTMTRDTSIGTAYMELRSLTSDDTAIYYCTTGGWISLYYDSSYYPNFDHWGQGTLLTVSS
VL: QSALTQPASVSGSPGQSITISCTGTKYDVGSHDLVSWYQQYPGKVPKLMIYEVNKRPSGVSNRFSGSKSGNTASLTISGLRAEDEADYYCCSFGGSATVVCGGGTKVTVL
- change in Env interaction/affinity of DH270.6 mutant relative to DH270.6 (wild-type 92BR SOSIP.664; Fig. 4b): fourfold lower affinity
- Kd (wild-type 92BR SOSIP.664): 44 ± 2 nM
